Measured values from publication PMC5027281 (Nature Communications, 2016).
Positions count from the first letter of the chain named.

B1: 3I14-GL IgG1 (VH and VL germline versions) (antibody, V domains shown)
VH: QVQLVESGGGVVQPGRSLRLSCAASGFTFSSYGMHWVRQAPGKGLEWVAVISYDGSNKYYADSVKGRFTISRDNSKNTLYLQMNSLRAEDTAVYYCAKLPSPYYYDSRFVWVAASYFDYWGQGTLVTVSS
VL: not shown
B2: 3I14-mHgL IgG1 (mature heavy chain, germline light chain) (antibody, V domains shown)
VH: QVQLLESGGGVVQPGRSLRLSCAASGFTFSNYGMHWVRQAPGKGLEWVAIISFDGSKKYYANSVKGRSTISRDNSKNTLSLQMNSLGPEDTALYYCAKLPSPYYFDSRFVWVAASAFHFWGQGILVTVSS
VL: not shown
B3: 3I14-gHmL IgG1 (germline heavy chain, mature light chain) (antibody, V domains shown)
VH: B1 VH
VL: NFMLTQPPSASGTPGQRVTISCSGSSSNIGGNTVHWFQQLPGTAPKLLIYTNSLRPSGVPDRFSGSKSGTSASLAISGLQSEDEADYYCAAWDDSLNGQVFGGGTKLTVL
B4: 3I14 VLD94N variant IgG1 (antibody, V domains shown)
VH: B2 VH
VL: B3 VL with D94N

Experiments:
[1] = molecular target: T1, Recombinant full-length HA of A/Perth/16/09 (H3-PE09) (influenza A virus A/Perth/16/09); experiment: BLI; conditions: both partners purified
[2] = molecular target: T1, Recombinant full-length HA of …; experiment: BLI; conditions: both partners purified; remark: listed apart in the source

| Binder | Kd [1] [nM] | koff [1] [s⁻¹] | kon [1] [M⁻¹ s⁻¹] | Kd [2] [nM] | koff [2] [s⁻¹] | kon [2] [M⁻¹ s⁻¹] |
| --- | --- | --- | --- | --- | --- | --- |
| B1 | 4.02 | 0.000556 | 139000 | – | – | – |
| B2 | 0.658 | 0.000126 | 192000 | – | – | – |
| B3 | 0.733 | 0.000125 | 171000 | – | – | – |
| B4 | – | – | – | 0.308 | 5.44e-05 | 177000 |
